B1: MAP4, P27816 (peptide)
chain: LDSQIQETSI
B2: TANC2, Q9HCD6 (peptide)
chain: PKRPFVESNV

Legend:
Assay in all cases: holdup assay
Set-up in all cases: key: below the threshold = too weak to quantify, mostly under pKd 3.1 to 4
Settings in all cases: plain residues with an end cap or a label only (N-terminal biotin on a linker: ttds)
[1] = target: FRMPD4, Q14CM0
[2] = target: NHERF4_4, Q86UT5
[3] = target: NHERF4_1, Q86UT5-2
[4] = target: MAST2, Q6P0Q8
[5] = target: GORASP2, Q9H8Y8
[6] = target: MAGI2_3, Q86UL8
[7] = target: DLG2_2, Q15700
[8] = target: MAGI2_5, Q86UL8
[9] = target: LIMK2, P53671
[10] = target: T1, PDZD2_2, O15018
T1 sequence (O15018 329-429, limits assumed, looked up): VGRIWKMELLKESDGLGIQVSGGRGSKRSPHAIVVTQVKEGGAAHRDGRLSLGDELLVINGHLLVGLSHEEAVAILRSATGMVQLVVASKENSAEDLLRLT

[11] = target: T2, GRIP1_7, Q9Y3R0
T2 sequence (Q9Y3R0 999-1096, limits assumed, looked up): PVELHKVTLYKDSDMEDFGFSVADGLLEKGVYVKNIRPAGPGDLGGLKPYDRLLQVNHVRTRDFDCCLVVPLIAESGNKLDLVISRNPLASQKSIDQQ

[12] = target: LNX1_3, Q8TBB1
[13] = target: T3, TJP3_3, O95049
T3 sequence (O95049 375-456, limits assumed, looked up): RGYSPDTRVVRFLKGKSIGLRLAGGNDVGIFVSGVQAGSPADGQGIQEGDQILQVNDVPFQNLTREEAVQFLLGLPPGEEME

[14] = target: T4, DFNB31_3, Q9P202
T4 sequence (Q9P202 811-907, limits assumed, looked up): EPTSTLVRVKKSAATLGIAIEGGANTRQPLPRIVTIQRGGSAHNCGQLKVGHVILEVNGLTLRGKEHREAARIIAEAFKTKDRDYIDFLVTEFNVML

[15] = target: GRIP2_3, Q9C0E4
[16] = target: DLG4_1, P78352
[17] = target: FRMPD2_1, Q68DX3
[18] = target: T5, NHERF3_1, Q5T2W1
T5 sequence (Q5T2W1 4-100, limits assumed, looked up): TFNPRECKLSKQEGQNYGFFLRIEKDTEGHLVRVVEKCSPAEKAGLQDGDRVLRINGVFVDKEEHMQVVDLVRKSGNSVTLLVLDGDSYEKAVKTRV

[19] = target: SNX27, Q96L92
[20] = target: SCRIB_1, Q14160
[21] = target: GOPC, Q9HD26
[22] = target: DLG1_3, Q12959
[23] = target: SCRIB_2, Q14160
[24] = target: T6, HTRA4, P83105
T6 sequence (P83105 378-476, limits assumed, looked up): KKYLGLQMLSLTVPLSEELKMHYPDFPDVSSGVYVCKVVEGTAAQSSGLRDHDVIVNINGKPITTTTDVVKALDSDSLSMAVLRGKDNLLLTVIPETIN

[25] = target: Inadl_8, Q8NI35
[26] = target: DLG4_3, P78352
[27] = target: LNX1_1, Q8TBB1
[28] = target: T7, DLG3_3, Q92796
T7 sequence (Q92796 374-475, limits assumed, looked up): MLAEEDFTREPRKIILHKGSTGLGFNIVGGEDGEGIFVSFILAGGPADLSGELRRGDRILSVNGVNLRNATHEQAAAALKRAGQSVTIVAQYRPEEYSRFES

[29] = target: T8, APBA2_1, Q99767
T8 sequence (Q99767 563-664, limits assumed, looked up): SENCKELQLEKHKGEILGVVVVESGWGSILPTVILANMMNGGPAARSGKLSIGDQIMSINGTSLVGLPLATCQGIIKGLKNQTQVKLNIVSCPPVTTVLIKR

[30] = target: DLG4_2, P78352
[31] = target: Inadl_2, Q8NI35
Inadl_2, Q8NI35, sequence (Q8NI35 238-335): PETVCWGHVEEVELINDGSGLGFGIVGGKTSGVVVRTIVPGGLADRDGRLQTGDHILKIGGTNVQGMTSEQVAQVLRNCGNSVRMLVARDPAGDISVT

NHERF4_4, Q86UT5, sequence (Q86UT5 464-550): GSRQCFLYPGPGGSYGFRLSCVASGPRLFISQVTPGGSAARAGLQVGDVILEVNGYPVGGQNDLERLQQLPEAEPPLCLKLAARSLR
Inadl_8, Q8NI35, sequence (Q8NI35 1425-1530): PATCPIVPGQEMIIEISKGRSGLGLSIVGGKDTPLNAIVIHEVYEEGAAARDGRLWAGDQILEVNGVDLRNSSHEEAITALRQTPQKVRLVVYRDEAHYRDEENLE
LNX1_3, Q8TBB1, sequence (Q8TBB1 500-596): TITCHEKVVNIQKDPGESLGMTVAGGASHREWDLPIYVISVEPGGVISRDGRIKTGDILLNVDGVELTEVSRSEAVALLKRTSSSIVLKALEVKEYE
SCRIB_2, Q14160, sequence (Q14160 857-960): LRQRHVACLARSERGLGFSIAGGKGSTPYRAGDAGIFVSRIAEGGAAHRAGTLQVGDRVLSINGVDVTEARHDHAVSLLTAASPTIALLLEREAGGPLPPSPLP
DLG4_1, P78352, sequence (P78352 62-152): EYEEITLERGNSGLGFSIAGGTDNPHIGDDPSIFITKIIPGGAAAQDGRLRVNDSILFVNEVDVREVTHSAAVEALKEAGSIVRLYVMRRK
MAST2, Q6P0Q8, sequence (Q6P0Q8 1099-1202): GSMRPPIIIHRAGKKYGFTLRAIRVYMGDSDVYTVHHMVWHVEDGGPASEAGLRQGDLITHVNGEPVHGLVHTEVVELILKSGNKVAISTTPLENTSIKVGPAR
LIMK2, P53671, sequence (P53671 143-248): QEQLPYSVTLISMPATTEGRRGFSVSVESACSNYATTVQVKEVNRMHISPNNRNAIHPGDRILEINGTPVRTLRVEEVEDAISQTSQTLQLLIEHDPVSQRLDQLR
SCRIB_1, Q14160, sequence (Q14160 718-814): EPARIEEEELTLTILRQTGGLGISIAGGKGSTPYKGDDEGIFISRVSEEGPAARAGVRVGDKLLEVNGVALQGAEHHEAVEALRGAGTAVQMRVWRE
DLG1_3, Q12959, sequence (Q12959 457-571): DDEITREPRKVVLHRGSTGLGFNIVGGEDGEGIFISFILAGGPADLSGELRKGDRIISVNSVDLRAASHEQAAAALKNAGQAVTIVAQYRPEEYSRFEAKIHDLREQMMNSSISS
NHERF4_1, Q86UT5-2, sequence (Q86UT5 other isoform, or with tags, fused parts or gaps): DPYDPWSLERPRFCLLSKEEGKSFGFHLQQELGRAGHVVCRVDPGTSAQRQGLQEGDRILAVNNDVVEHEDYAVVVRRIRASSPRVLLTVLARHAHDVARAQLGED
DLG4_3, P78352, sequence (P78352 306-403): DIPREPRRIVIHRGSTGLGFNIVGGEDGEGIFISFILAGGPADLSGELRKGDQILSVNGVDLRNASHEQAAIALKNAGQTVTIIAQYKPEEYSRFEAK
DLG2_2, Q15700, sequence (Q15700 189-283): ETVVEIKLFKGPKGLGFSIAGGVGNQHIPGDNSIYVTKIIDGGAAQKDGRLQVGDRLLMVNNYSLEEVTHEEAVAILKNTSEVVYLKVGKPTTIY
FRMPD2_1, Q68DX3, sequence (Q68DX3 770-861): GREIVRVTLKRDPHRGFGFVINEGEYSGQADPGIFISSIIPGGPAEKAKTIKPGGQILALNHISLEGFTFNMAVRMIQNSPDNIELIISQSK
MAGI2_5, Q86UL8, sequence (Q86UL8 915-1017): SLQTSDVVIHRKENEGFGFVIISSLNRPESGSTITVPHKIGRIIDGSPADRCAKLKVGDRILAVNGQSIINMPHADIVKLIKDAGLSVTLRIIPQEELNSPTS
LNX1_1, Q8TBB1, sequence (Q8TBB1 261-371): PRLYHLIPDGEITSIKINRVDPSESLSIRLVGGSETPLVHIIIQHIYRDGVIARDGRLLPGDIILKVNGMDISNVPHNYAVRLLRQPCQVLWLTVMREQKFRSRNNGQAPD
DLG4_2, P78352, sequence (P78352 155-259): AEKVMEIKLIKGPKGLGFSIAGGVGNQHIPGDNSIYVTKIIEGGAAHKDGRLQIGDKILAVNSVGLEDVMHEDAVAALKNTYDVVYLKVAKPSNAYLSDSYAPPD
GRIP2_3, Q9C0E4, sequence (Q9C0E4 238-339): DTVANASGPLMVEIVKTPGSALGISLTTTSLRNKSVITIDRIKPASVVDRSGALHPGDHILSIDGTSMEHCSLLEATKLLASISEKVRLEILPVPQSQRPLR
MAGI2_3, Q86UL8, sequence (Q86UL8 600-682): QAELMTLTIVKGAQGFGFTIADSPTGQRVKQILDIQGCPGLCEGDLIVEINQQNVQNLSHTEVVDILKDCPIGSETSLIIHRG
FRMPD4, Q14CM0, sequence (Q14CM0 67-160): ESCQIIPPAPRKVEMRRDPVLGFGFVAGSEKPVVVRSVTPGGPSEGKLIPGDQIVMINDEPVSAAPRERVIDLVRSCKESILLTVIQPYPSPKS

Binder | pKd [1] | pKd [2] | pKd [3] | pKd [4] | pKd [5] | pKd [6] | pKd [7] | pKd [8] | pKd [9] | pKd [10] | pKd [11] | pKd [12] | pKd [13] | pKd [14] | pKd [15] | pKd [16] | pKd [17] | pKd [18] | pKd [19] | pKd [20] | further results
B1 | below the threshold | below the threshold | below the threshold | 5.97 | below the threshold | below the threshold | 3.9 | 3.5 | below the threshold | 4.36 | below the threshold | below the threshold | below the threshold | below the threshold | below the threshold | 3.5 | below the threshold | 4.52 | 5.73 | 5.56 | pKd [21]: 4.14; pKd [22]: 4.06; pKd [23]: 4.45; pKd [24]: below the threshold; pKd [25]: below the threshold; pKd [26]: 3.61; pKd [27]: below the threshold; pKd [28]: 3.78; pKd [29]: below the threshold; pKd [30]: 4.18; pKd [31]: below the threshold
B2 | below the threshold | below the threshold | below the threshold | 4.84 | below the threshold | below the threshold | 4.33 | 3.7 | below the threshold | 4.52 | below the threshold | below the threshold | below the threshold | below the threshold | below the threshold | 4.32 | below the threshold | 3.59 | 4.8 | 4.75 | pKd [21]: below the threshold; pKd [22]: 3.77; pKd [23]: 4.59; pKd [24]: below the threshold; pKd [25]: 3.68; pKd [26]: below the threshold; pKd [27]: 3.57; pKd [28]: 3.67; pKd [29]: below the threshold; pKd [30]: 4.6; pKd [31]: below the threshold

Reference: publication PMC9482650, “Quantitative fragmentomics allow affinity mapping of interactomes” (Nature Communications, 2022)
